This is an account of results in patent US20220332795A1 (ARO BIOTHERAPEUTICS, published 2022).

First the molecules themselves.
B1: ABX1100 (designed binder)
chain: MLPAPKNLVVSRVTEDSARLSWTAPDAAFDSFYIAYAEPRPDGEAILLQVPGSCRSYDLTGLKPGTEYSVLIHGVKGGLLSSPLTAIFTT
modifications: siRNA pair with linker (attachment residue not stated for this molecule)
notes: FN3 domain-siRNA conjugate; also called CD71 FN3 domain siRNA conjugate
B2: SEQ ID NO 216 (designed binder, not shown: small tags and cut ends)
chain: MLPAPKNLVVSRVTEDSARLSWTAPDAAFDSFYIAYAEPRPDGEAISLSVPGSERSYDLTGLKPGTEYSVLIHGVKGGLLSSPPKFTT
B3: SEQ ID NO 238 (designed binder, not shown: small tags and cut ends)
chain: B2 chain with A24T, S47R, S49Q, P84L, K85G
B4: SEQ ID NO 221 (designed binder, not shown: small tags and cut ends)
chain: MLPAPKNLVVSRVTEDSARLSWTAPDAAFDSFFIGYLEPQPPGEAIFLDVPGSERSYDLTGLKPGTEYNVTIQGVKGGFPSPLTAFFTT
B5: SEQ ID NO 222 (designed binder, not shown: small tags and cut ends)
chain: MLPAPKNLVVSRVTEDSARLSWTAPDAAFDSFFIGYLEPQPPGEAIVLDVPGSERSYDLTGLKPGTEYNVTIQGVKGGFPSHPLAAAFTT
B6: SEQ ID NO 231 (designed binder, not shown: small tags and cut ends)
chain: B5 chain with V47H, D49Y, H82D, A85D, A87V
B7: SEQ ID NO 235 (designed binder, not shown: small tags and cut ends)
chain: B5 chain with V47Q, D49T, H82L, A85S, A87D
B8: SEQ ID NO 223 (designed binder, not shown: small tags and cut ends)
chain: B5 chain with V47G, D49A, H82V, A85Q, A87N

Where a chain is given by its changes, count along the chain named.

The target in one assay is T1, human CD71 on cells (human, UniProt P02786 1-760).
T1 construct: whole, on cells; also called the receptor
T1 sequence (P02786 whole entry): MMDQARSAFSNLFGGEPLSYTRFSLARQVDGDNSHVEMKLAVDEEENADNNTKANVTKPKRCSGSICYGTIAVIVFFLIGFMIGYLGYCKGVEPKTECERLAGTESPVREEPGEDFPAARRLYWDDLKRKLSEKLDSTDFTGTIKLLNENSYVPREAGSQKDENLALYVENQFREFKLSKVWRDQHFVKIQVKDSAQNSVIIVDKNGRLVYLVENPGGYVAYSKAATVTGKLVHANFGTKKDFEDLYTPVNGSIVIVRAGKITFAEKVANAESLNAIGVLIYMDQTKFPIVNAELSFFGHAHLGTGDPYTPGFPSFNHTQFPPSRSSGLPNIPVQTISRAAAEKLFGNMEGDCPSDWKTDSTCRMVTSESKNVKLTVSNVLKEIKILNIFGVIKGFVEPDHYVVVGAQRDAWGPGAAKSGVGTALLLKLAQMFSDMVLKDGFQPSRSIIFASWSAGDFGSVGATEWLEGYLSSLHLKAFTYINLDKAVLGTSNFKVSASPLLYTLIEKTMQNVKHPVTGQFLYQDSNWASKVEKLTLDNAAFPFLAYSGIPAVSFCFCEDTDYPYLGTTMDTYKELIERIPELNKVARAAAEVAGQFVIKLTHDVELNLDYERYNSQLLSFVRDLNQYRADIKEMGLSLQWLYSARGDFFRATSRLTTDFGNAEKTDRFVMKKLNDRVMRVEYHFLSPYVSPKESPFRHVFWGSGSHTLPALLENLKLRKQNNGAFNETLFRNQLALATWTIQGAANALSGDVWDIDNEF
Kind of assay: Membrane Proteome Array, flow cytometry on QT6 cells. Background: Flow cytometry measures light scatter and fluorescence of single cells or particles in a stream.
As to B1, the binding result is on record as “binds”.

A further assay deals with T2, CD71 apical domain (human, UniProt P02786 189-383, limits assumed).
T2 construct: domain: apical domain
T2 sequence (P02786 189-383 limits assumed): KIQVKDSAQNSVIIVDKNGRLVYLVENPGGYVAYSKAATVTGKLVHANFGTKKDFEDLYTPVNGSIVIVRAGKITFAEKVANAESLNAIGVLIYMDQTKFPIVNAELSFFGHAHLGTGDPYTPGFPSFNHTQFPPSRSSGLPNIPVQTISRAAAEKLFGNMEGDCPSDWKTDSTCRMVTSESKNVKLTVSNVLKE
Kind of assay: solution ELISA screen (luminescence). (In general: An ELISA detects its analyte on a solid surface through an enzyme-linked reagent.)
On to B2, for which the RLU amounted to 142000 RLU.
Same read-out and setting: under B3 stands 112000 RLU; under B4, 31800 RLU; under B5, 1.07e+06 RLU.
The same measure, in the same setting: with B6 the figure was 6.83e+06 RLU; with B7, 1.67e+06 RLU.
The molecule B8 returned an RLU of 3.6e+06 RLU.

For another assay, the target named is T3, human CD71 extracellular domain (human, UniProt P02786 89-760, biotinylated).
T3 construct: extracellular domain; also called hCD71; huCD71 ECD
T3 sequence (P02786 other isoform, or with tags, fused parts or gaps): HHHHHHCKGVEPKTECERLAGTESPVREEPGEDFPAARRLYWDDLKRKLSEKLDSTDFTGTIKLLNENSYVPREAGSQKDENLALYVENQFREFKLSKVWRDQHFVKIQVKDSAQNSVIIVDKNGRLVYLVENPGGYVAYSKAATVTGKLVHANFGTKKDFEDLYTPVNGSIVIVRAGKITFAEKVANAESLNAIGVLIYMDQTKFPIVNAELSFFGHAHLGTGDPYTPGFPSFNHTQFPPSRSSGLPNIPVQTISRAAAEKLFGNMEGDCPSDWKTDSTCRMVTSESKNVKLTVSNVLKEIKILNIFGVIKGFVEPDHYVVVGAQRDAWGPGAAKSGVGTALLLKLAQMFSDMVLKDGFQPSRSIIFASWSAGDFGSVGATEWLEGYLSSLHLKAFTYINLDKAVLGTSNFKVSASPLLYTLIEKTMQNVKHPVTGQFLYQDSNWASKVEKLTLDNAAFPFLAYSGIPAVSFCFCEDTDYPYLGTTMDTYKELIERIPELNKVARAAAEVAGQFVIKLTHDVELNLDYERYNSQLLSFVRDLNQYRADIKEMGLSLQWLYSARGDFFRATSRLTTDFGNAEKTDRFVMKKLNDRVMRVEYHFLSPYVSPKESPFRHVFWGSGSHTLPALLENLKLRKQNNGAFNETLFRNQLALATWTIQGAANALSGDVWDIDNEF
Kind of assay: solution ELISA screen (luminescence).
Take B2: the RLU was determined as 4.15e+06 RLU.
Still for that read-out and setting: under B3 stands 3.07e+06 RLU; under B4, 966000 RLU; under B5, 1.47e+06 RLU.
In turn, B6 displayed an RLU of 2.32e+06 RLU.
Take B7: the RLU was 943000 RLU.
Same read-out and setting: with B8 the figure was 1.93e+06 RLU.

In the next assay the target is T2, CD71 apical domain. Kind of assay: solution ELISA screen, signal ratio to HSA control.
As to B2, the “apical domain:HSA” value turned out to be 0.7 ratio.
Still for that read-out and setting: with B3 the figure was 1.1 ratio; with B4, 0.5 ratio; with B5, 69 ratio.
Regarding B6, the “apical domain:HSA” value was 331 ratio.
The same measure, in the same setting: with B7 the figure was 70.1 ratio.
Still for that read-out and setting: under B8 stands 197 ratio.

In a further assay the target is T3, human CD71 extracellular domain. Kind of assay: solution ELISA screen, signal ratio to HSA control.
Consider B2, for which the “hCD71:HSA” value came to 21.6 ratio.
Take B3: the “hCD71:HSA” value was 31 ratio.
On the same count and under the same terms, with B4 the figure was 16.4 ratio.
The same measure, in the same setting: under B5 stands 94.5 ratio; under B6, 112 ratio; under B7, 39.5 ratio.
Regarding B8, the “hCD71:HSA” value stood at 105 ratio.
